Source: paper PMC8247599

Experiments:
[1] = tested on: aTm1 252-334 (Drosophila melanogaster); assay: EMSA
[2] = biological target: GST-tagged Khc^848–941 (Drosophila) (UniProt P17210); assay: SPR
[3] = biological target: aTm1^252–334 (Drosophila melanogaster); assay: ITC

GST-tagged Khc^848–941 (Drosophila), sequence (P17210 848-941): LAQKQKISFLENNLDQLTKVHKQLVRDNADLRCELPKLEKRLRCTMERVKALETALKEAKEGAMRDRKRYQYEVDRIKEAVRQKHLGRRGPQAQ

Kd [2] [µM] | Kd [3] [µM] | Substance | Kd [1] [µM]
 |  | UUUUUUUUUUUUUUUUUUUUUUUUU [oligo-(U25) RNA] | > 10
0.141 | 10 | aTm1^252–334 (domain or fragment) | 
